{"source": "paper PMC2562697", "molecular_target": "MutSα subunit MSH2-His6;MutSα subunit MSH6 (human;human, UniProt P43246;P52701 1-934;1-1360, |)", "experiment": "EMSA", "data": [{"binder": "G:T mismatch 35 bp (dsDNA) DNA 1: GTGGATCCCCCGGGCTGCGGGAATTCGATATCAAG DNA 2: CTTGATATCGAATTCCTGCAGCCCGGGGGATCCAC", "values": [{"measurement": "binding result", "result": "binds"}]}]}
